Data as given in PMC3684423 (Structure (London, England : 1993), 2012).
Where no end group is shown, it is not given here. [ ]: non-standard residue; d: D form. pT = C[C@@H](OP(=O)(O)O)[C@H](N)C(=O)O

Experiments:
[1] = target: T1, N-terminal Smac/DIABLO(1–15) peptide; assay: ITC
T1 sequence (Q9NR28 22-36, species assumed, looked up): LCVPVVANFKKRCFS

[2] = target: Survivin 1-142 (UniProt O15392); assay: peptide-bead pull-down, Coomassie stain
[3] = target: Survivin L64A mutant (human, UniProt O15392 1-142, L64A); assay: ITC
Sequence of Survivin L64A mutant (O15392 whole entry L64A): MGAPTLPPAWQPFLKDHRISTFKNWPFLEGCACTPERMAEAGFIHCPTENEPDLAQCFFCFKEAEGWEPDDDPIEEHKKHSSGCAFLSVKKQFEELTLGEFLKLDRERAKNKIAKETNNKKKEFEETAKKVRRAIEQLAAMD

[4] = target: Survivin H80A mutant (human, UniProt O15392 1-142, H80A); assay: ITC
Sequence of Survivin H80A mutant (O15392 whole entry H80A): as the sequence (O15392 whole entry L64A) above, with A64L, H80A counted along it

[5] = target: Survivin W67A mutant (human, UniProt O15392 1-142, W67A); assay: ITC
Sequence of Survivin W67A mutant (O15392 whole entry W67A): as the sequence (O15392 whole entry L64A) above, with A64L, W67A counted along it

[6] = target: Survivin E63A mutant (human, UniProt O15392 1-142, E63A); assay: ITC
Sequence of Survivin E63A mutant (O15392 whole entry E63A): as the sequence (O15392 whole entry L64A) above, with E63A, A64L counted along it

Sequence of human Survivin (wild type) (O15392 whole entry): as the sequence (O15392 whole entry L64A) above, with A64L counted along it

Molecule: Survivin(K62Y/H80W) double mutant (from UniProt O15392 1-142) (natural protein)
- Kd [1]: 19.8 µM
- dH [1]: -4.44 kcal/mol

Molecule: histone H3 (from UniProt P68431) H3T3ph peptide beads
- binding against the reference ([2]; reference: unmodified H3 peptide beads, sites T3): same

Molecule: histone H3 (from UniProt P68431) S10ph H3 peptide beads (T3 state not stated)
- binding against the reference ([2]; reference: H3 peptide beads without S10ph, sites S10): same

Molecule: human Survivin (wild type) (from UniProt O15392 1-142) (natural protein)
- Kd [1]: 121 µM
- dH [1]: -3.48 kcal/mol

Molecule: AR[pT]KQTARKSTGGKA (peptide, UniProt P68431 2-16, looked up) [H3(1–15)T3ph peptide]
- Kd [3]: > 200 µM
- Kd [4]: > 200 µM
- Kd [5]: > 200 µM
- Kd [6]: > 200 µM
